We go through one substance from article PMC3302947.

The target of this assay is Vif(155–176) (PPLP peptide) (HIV-1). The assay is described as follows: AUC.

The stoichiometry N is a count of units in the complex or per binding partner. Consider Vif(155–176) (PPLP peptide), for which the stoichiometry N is 2.
